Reference: patent publication US20200317817A1 (XOMA US, published 2020)

Experiments:
[1] = target: T1, human PTH2R overexpressed on CHO cells (human, UniProt P49190 25-550); experiment: flow cytometry on CHO cells overexpressing human PTH2R, 1 hr at 4 C, APC anti-human IgG
T1 construct: whole, on cells; also called CHO human PTH2R
Protocol: Increasing concentrations of anti-PTH1R antibodies were added to CHO cells overexpressing human PTH2R and incubated for 1 hr at 4° C. (FIG. 8). Cells were washed twice with FACS Buffer and antibody binding was detected with anti-human IgG APC. […] Anti-KLH.G2 was used a negative control for binding.
PTH2R has a 51% homology to PTH1R. […] Following two washes, cells were incubated with Allophycocyanin (APC) AffiniPure F(ab′)₂ Fragment Goat Anti-Human IgG (H+L) (Jackson ImmunoResearch, West Grove, Pa.) for 20 minutes at 4° C. Cells were washed twice and resuspended in FACS Buffer. Samples were acquired using BD Cytometer (BD Biosciences, San Jose, Calif.) and data were analyzed using FlowJo (FlowJo, LLC, Ashland, Oreg.) and Prism (GraphPad Software, La Jolla, Calif.). […] Anti-KLH.G2 was used a negative control for binding.

[2] = target: T2, human PTH1R overexpressed on CHO cells (human, UniProt Q03431 27-593); experiment: cell-based or functional assay
T2 sequence (looked up): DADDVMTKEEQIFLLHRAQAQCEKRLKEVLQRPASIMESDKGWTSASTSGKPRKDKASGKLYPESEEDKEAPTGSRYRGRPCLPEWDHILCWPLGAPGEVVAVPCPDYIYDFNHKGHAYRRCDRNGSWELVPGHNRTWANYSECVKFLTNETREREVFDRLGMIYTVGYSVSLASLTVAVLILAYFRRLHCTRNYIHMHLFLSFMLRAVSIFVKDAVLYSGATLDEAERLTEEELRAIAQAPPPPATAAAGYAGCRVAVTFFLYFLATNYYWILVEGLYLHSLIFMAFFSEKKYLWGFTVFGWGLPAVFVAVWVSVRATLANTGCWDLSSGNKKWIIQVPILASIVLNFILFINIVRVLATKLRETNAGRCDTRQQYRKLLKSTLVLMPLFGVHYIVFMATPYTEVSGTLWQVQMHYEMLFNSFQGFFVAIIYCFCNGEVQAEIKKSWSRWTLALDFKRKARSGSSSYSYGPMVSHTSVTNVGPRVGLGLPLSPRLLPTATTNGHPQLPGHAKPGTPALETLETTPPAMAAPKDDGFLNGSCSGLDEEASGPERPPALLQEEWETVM

[3] = target: T3, mouse PTH1R overexpressed on CHO cells (mouse, UniProt P41593 27-591); experiment: cell-based or functional assay
T3 sequence (looked up): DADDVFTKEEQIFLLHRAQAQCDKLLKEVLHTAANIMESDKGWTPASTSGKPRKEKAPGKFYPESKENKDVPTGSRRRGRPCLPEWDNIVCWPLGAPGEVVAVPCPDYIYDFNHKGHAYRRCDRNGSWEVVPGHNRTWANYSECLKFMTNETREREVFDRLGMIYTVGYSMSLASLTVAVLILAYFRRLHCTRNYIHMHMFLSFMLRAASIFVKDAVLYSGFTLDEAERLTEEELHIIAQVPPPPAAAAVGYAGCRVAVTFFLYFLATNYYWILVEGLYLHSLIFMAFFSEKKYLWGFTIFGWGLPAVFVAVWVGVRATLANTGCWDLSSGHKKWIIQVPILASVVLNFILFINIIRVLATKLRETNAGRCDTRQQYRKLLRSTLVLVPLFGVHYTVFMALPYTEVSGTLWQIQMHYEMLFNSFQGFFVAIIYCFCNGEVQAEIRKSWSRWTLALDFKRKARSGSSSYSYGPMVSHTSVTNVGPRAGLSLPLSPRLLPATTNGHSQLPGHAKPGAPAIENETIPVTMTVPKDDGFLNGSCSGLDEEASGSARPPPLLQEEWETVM

[4] = target: T4, human PTH1R overexpressed on Saos-2 cells (human, UniProt Q03431 27-593); experiment: flow cytometry on Saos-2 cells overexpressing human PTH1R, in the presence of 1 uM PTH, PE anti-human IgG
T4 construct: whole, on cells; also called Saos-2 human PTH1R cells
T4 sequence (looked up): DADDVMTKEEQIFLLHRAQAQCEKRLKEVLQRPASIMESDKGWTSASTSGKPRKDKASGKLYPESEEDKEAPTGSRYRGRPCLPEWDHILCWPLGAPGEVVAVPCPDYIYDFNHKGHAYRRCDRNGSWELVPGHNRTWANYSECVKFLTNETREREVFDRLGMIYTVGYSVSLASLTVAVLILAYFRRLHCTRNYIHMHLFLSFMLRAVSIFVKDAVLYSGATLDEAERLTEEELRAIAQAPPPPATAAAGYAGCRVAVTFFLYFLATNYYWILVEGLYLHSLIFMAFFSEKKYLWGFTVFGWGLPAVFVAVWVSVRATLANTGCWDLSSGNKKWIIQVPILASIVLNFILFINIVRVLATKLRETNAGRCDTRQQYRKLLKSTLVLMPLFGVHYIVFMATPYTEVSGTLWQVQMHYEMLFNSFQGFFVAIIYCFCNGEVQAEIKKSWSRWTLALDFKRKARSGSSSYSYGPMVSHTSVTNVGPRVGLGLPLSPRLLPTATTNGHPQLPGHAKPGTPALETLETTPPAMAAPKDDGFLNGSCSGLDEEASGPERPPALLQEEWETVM

[5] = target: T4, human PTH1R overexpressed on Saos-2 …; experiment: flow cytometry on Saos-2 cells overexpressing human PTH1R, antibody alone, PE anti-human IgG
[6] = target: T5, human PTH1R on Saos-2 cells (endogenous) (human, UniProt Q03431 27-593); experiment: cell-based or functional assay
T5 sequence (looked up): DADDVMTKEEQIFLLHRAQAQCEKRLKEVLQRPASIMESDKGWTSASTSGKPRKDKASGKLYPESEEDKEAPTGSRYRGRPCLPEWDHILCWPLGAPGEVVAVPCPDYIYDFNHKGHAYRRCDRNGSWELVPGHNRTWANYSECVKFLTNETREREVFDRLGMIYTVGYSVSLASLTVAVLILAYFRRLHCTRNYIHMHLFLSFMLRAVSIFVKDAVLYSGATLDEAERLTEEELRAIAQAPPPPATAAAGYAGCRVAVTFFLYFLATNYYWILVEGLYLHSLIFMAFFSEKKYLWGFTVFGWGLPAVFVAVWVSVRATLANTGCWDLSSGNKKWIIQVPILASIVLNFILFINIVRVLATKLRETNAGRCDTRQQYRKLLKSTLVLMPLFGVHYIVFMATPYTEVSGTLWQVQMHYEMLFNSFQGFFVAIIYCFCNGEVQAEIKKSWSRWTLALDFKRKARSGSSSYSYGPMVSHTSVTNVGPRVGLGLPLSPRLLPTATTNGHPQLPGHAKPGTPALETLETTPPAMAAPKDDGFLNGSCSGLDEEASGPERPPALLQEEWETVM

[7] = target: T4, human PTH1R overexpressed on Saos-2 …; experiment: flow cytometry on Saos-2 cells overexpressing human PTH1R, in the presence of 3 uM PTHrP, PE anti-human IgG
Text: Antibody binding was detected with R-Phycoerythrin anti-human IgG.

[8] = target: T6, recombinant N-terminal extracellular domain of the human PTH1R receptor (human, UniProt Q03431 27-188, limits assumed); experiment: SPR, IgG captured, ECD injected
T6 construct: domain: N-terminal extracellular domain; Bought reagent; also called N-ECD PTH1R; PTH1R N-terminal ECD
T6 sequence (looked up): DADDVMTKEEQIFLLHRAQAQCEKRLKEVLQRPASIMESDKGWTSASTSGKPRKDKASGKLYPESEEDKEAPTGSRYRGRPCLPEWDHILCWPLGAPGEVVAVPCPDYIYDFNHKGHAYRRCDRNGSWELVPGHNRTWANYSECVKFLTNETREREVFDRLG
Outline: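 Antibodies (0.5 μg/mL) captured on anti-human IgG-Fc chip to 100–200 RU in HBS-EP+ with 2.5 mg/mL BSA; receptor ECD injected at 30 μL/minute for 240 s, 360 s dissociation, 3M MgCl regeneration. Double-referenced data fit globally for ka and kd; KD=kd/kₐ.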

T1 sequence (P49190 25-550): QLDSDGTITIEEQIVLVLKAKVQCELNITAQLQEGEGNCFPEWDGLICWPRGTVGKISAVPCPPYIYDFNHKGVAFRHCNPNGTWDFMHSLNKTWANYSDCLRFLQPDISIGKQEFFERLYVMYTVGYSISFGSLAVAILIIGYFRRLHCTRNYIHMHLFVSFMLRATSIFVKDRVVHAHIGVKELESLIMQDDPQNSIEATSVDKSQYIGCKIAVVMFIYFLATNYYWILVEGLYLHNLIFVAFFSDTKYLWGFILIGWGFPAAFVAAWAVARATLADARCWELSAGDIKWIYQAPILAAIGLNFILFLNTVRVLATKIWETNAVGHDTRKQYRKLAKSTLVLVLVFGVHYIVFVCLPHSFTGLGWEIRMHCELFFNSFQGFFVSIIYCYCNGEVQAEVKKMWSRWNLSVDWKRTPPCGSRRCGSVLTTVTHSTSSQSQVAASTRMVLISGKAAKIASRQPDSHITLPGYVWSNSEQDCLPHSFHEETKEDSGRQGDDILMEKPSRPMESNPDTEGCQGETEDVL

binding result [1]: no binding (tested: about 160 nM) | IC50, inhibition of PTH(1-34)-induced cAMP accumulation [2]: 11.8 nM | IC50, inhibition of PTHrP(1-34)-induced cAMP accumulation [2]: 7.06 nM | IC50, inhibition of PTHrP(1-34)-induced cAMP accumulation [3]: 2.23 nM | EC50 [4]: 67.4 nM | EC50 [5]: 4.4 nM | EC50 of antibody, neutralization of M-CSF production induced by 12.5 nM PTHrP (1-36) [6]: 6.6 nM | fold shift of the PTHrP (1-36) dose response, M-CSF secretion by Saos-2 cells, 40 µg/mL antibody [6]: > 200 fold | EC50 [7]: 465 nM | Kd [8]: 0.32 nM | koff [8]: 0.00018 s⁻¹ | kon [8]: 560000 M⁻¹ s⁻¹
B1: XPA.85.328 (antibody, V domains shown)
VH: QMQLVQSGAEVKKPGSSVKVSCKASGGTFSSYAISWVRQAPGQGLEWMGGIIPIFGTANYAQKFQGRVTITADESTSTAYMELSSLRSEDTAVYYCARGYVVARLWGQGTLVTVSS
VL: DVVMTQTPLSLSVTPGQPASISCKSSQSLLHIDGKTYLYWYLQKSGQSPQLLIYEVSNRFSGVPDTFSGSGSGTDFTLKISRVEAEDVGVYYCMQSLHFPITFGQGTRLEIK
notes: IgG; also called Ab328
